In paper PMC8892091:
Where a chain is given by its changes, count along the chain named. Read-outs that look alike come from different tables or passages of the source.

B1: poly(A) 30 nt (ssRNA)
RNA: AAAAAAAAAAAAAAAAAAAAAAAAAAAAAA
B2: ssDNA1 (unlabelled) (ssDNA)
DNA: GGATCAACAGTGCACAGTT
B3: dsDNA1 (dsDNA)
DNA 1: AACTTCGTGCAGGCATGGGATCTTGTCTACT
DNA 2: AGTAGACAAGATCCCATGCCTGCACGAAGTT
B4: Bulge DNA1 (dsDNA)
DNA 1: B3 DNA 1
DNA 2: AGTAGA
DNA 3: CATGCCTGCACGAAGTT
B5: Bubble DNA1 (dsDNA)
DNA 1: B3 DNA 1
DNA 2: B3 DNA 2 with A11C, T12G, C13A
B6: Bulge DNA2 (dsDNA)
DNA 1: B3 DNA 1
DNA 2: AGTAGACAACATGCCTGCACGAAGTT
B7: ssDNA1 (FAM) (ssDNA)
DNA: GGATCAACAGTGCACAGTT
B8: ssDNA3 (FAM) (ssDNA)
DNA: GATCCAGTGATCCAGT

Columns and labels:
MBP-ALKBH6 WT [1] = target: T1, MBP-ALKBH6 WT (Homo sapiens, UniProt Q3KRA9 1-238); assay: EMSA
ALKBH6 WT [2] = target: T2, ALKBH6 WT (Homo sapiens, UniProt Q3KRA9 1-238); assay: MST
MBP-ALKBH6 WT [3] = target: T1, MBP-ALKBH6 WT; assay: competition
MBP-ALKBH6ΔFlip3 = MBP-ALKBH6ΔFlip3 (Homo sapiens, UniProt Q3KRA9 1-238, del139-158); assay: EMSA
ALKBH6 WT [4] = target: T2, ALKBH6 WT; assay: MST; remark: listed apart in the source
MBP-ALKBH6 R225A/R228A = MBP-ALKBH6 R225A/R228A (Homo sapiens, UniProt Q3KRA9 1-238, R225A;R228A); assay: EMSA
ALKBH6ΔFlip3 = ALKBH6ΔFlip3 (Homo sapiens, UniProt Q3KRA9 1-238, del139-158); assay: MST
ALKBH6 WT [5] = target: T2, ALKBH6 WT; assay: MST; remark: listed apart in the source

Row | Binder | binding result (MBP-ALKBH6 WT [1]) | binding result (ALKBH6 WT [4]) | also measured
1 | B1 | binds |  | binding result (ALKBH6 WT [2]): binds
2 | B2 |  |  | binding result (MBP-ALKBH6 WT [3]): binds
3 | B3 | no binding |  | binding result (MBP-ALKBH6ΔFlip3): binds
4 | B4 |  | binds | 
5 | B5 |  | binds | 
6 | B6 |  | binds | 
7 | B7 | binds |  | binding result (MBP-ALKBH6 R225A/R228A): binds
8 | B8 |  |  | binding result (ALKBH6ΔFlip3): binds; binding result (ALKBH6 WT [5]): binds
